# Results as given in patent publication US20180086841A1 (Merck Sharp & Dohme, published 2018).
# Changes are numbered by the printed parent chain.
# T1: F28A
# T1 construct: also called hCD27 F28A
# T1 receptor chain: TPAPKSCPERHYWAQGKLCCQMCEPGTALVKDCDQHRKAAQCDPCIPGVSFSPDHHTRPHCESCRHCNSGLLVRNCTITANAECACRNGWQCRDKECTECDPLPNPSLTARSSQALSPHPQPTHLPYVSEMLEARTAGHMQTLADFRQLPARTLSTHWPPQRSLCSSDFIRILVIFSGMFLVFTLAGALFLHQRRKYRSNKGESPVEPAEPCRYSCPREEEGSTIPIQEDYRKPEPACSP
# T2: K31A
# T2 construct: also called hCD27 K31A
# T2 receptor chain: T1 receptor chain with A28F, K31A
# T3: D43A
# T3 construct: also called hCD27 D43A
# T3 receptor chain: T1 receptor chain with A28F, D43A
# T4: P44A
# T4 construct: also called hCD27 P44A
# T4 receptor chain: T1 receptor chain with A28F, P44A
# T5: I46A
# T5 construct: also called hCD27 I46A
# T5 receptor chain: T1 receptor chain with A28F, I46A
# T6: S63A
# T6 construct: also called hCD27 S63A
# T6 receptor chain: T1 receptor chain with A28F, S63A
# T7: R87A
# T7 construct: also called hCD27 R87A
# T7 receptor chain: T1 receptor chain with A28F, R87A
# T8: W90A
# T8 construct: also called hCD27 W90A
# T8 receptor chain: T1 receptor chain with A28F, W90A
# T9: Q91A
# T9 construct: also called hCD27 Q91A
# T9 receptor chain: T1 receptor chain with A28F, Q91A
# T10: E9A
# T10 construct: also called hCD27 E9A
# T10 receptor chain: T1 receptor chain with E9A, A28F
# B1: hCD27.131A (mouse parental 131A) (antibody, mouse IgG1, V domains shown)
# VH: QIQLVQSGPELKKPGETVKISCKASGYTFTNYGMNWVKQAPGKGLKWMGWINTNTGEPTYAEEFKGRFAFSLETSATTAYLQINNLKNEDTATYFCAREGDAMDYWGQGTSVTVSS
# VL: QIVLTQSPAIMSASPGEKVTMTCSASSSVSYMHWYQQKSGTSPKRWIYDTSKLASGVPARFSGSGSGTSYSLTISSMEAEDAATYYCQQWNSYPFTFGSGTKLEIK
# notes: Mouse IgG1 antibody; also called mouse hCD27.131A
# Key:
# Experiment in all cases: flow cytometry on CHO-K1 transfectants, left sub-column
# F28A = molecular target: T1, F28A
# Procedure: (§1) The hCD27 variants that were tested are listed. Amino acids correspond to the UniProt P26842-1 sequence. Amino acids 1-20 constitute the signal peptide. Binding is expressed as the geometric mean of the FITC signal, relative to antibody binding to hCD27, which was set at 100%.
# (§2) The ability of several anti-hCD27 antibodies to bind to a series of hCD27 alanine mutants was determined using CHO-K1 cells, transiently transfected pCI-neo empty vector, pCI-neo.hCD27 and several pCI-neo.CD27Ala mutant constructs.
# (§3) Detached cells were transferred to 96 wells round-bottomed well plates at approximately 1.2×10⁵ cells/well. After spinning down the cells, discarding the supernatants and re-suspending the cells in the residual volume, the primary antibodies were added and incubated for 30 minutes at 4° C. Cells were washed three times with DPBS/BSA 1%, followed by centrifugation, discarding of the supernatants and re-suspension in the residual volume. […] After washing once, antibody binding was detected using the HTS plate reader (FACS Canto II) and FlowJo software for data analysis. Debris, dead cells and doublets were excluded from the analysis. Binding was expressed as the geometric mean of the FITC signal, relative to antibody binding to hCD27, which was set at 100%.
# K31A = molecular target: T2, K31A
# Procedure: as §1, §2, §3
# D43A = molecular target: T3, D43A
# Procedure: as §1, §2, §3
# P44A = molecular target: T4, P44A
# Procedure: as §1, §2, §3
# I46A = molecular target: T5, I46A
# Procedure: as §1, §2, §3
# S63A = molecular target: T6, S63A
# Procedure: as §1, §2, §3
# R87A = molecular target: T7, R87A
# Procedure: as §1, §2, §3
# W90A = molecular target: T8, W90A
# Procedure: as §1, §2, §3
# Q91A = molecular target: T9, Q91A
# Procedure: as §1, §2, §3
# E9A = molecular target: T10, E9A
# Procedure: as §1, §2, §3
binder,measurement,setting,value
B1,"binding, WT hCD27 = 100 (GM FITC)",F28A,106%
same,"binding, WT hCD27 = 100 (GM FITC)",K31A,203%
same,"binding, WT hCD27 = 100 (GM FITC)",D43A,194%
same,"binding, WT hCD27 = 100 (GM FITC)",P44A,158%
same,"binding, WT hCD27 = 100 (GM FITC)",I46A,132%
same,"binding, WT hCD27 = 100 (GM FITC)",S63A,162%
same,"binding, WT hCD27 = 100 (GM FITC)",R87A,153%
same,"binding, WT hCD27 = 100 (GM FITC)",W90A,126%
same,"binding, WT hCD27 = 100 (GM FITC)",Q91A,148%
same,"binding, WT hCD27 = 100 (GM FITC)",E9A,96.7%
